Earlier results on one substance are cited in article PMC11128129.

The target in the data set is PCSK9 (Homo sapiens) (UniProt Q8NBP7).
PCSK9 (Homo sapiens), sequence (Q8NBP7 153-692): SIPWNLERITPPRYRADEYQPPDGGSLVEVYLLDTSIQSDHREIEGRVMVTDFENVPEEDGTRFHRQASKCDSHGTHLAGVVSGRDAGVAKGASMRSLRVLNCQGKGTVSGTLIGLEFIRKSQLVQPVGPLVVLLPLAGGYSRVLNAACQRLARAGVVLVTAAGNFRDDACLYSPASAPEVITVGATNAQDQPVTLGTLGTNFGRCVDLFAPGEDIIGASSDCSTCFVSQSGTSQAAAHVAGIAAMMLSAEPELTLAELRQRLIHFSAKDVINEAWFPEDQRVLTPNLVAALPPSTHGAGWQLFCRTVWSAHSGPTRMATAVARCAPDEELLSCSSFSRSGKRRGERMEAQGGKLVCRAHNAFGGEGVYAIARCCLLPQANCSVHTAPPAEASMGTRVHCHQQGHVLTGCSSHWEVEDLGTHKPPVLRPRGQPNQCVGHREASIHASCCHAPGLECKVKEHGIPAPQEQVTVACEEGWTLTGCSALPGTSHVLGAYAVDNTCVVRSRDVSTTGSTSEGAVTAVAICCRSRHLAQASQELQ

As to LDLR (from UniProt P01130), the Kd – broadly, the free concentration of one partner at which half of the binding sites on the other are occupied at equilibrium, for simple one-to-one binding – is 719 nM.
